pKd: −log10 of the molar value.
Target: human CRBN (amino acids 40-442) in complex with full length human DDB1 (human) (UniProt Q96SW2)
Test: SPR (Biacore T200): GST-GSPT1 domains 2 and 3 captured by anti-GST antibody, CRBN-DDB1 as analyte, 10 uM Compound C; data not shown

Chain of human CRBN (amino acids 40-442) in complex with full length human DDB1 (human) (Q96SW2 40-442, chain 1 of 2): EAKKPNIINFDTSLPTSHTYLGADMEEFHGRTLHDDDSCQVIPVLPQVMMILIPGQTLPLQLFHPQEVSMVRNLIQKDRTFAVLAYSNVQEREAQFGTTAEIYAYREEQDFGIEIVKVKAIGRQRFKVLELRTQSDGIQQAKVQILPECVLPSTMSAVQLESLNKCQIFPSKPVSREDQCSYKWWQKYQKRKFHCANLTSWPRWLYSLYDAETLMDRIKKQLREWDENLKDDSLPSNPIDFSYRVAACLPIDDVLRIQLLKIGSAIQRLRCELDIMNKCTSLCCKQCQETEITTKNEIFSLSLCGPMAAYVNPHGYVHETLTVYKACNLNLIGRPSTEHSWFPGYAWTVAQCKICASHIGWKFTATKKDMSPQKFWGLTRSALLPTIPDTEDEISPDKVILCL
Chain of human CRBN (amino acids 40-442) in complex with full length human DDB1 (human) (Q16531 2-1140, chain 2 of 2, further chain): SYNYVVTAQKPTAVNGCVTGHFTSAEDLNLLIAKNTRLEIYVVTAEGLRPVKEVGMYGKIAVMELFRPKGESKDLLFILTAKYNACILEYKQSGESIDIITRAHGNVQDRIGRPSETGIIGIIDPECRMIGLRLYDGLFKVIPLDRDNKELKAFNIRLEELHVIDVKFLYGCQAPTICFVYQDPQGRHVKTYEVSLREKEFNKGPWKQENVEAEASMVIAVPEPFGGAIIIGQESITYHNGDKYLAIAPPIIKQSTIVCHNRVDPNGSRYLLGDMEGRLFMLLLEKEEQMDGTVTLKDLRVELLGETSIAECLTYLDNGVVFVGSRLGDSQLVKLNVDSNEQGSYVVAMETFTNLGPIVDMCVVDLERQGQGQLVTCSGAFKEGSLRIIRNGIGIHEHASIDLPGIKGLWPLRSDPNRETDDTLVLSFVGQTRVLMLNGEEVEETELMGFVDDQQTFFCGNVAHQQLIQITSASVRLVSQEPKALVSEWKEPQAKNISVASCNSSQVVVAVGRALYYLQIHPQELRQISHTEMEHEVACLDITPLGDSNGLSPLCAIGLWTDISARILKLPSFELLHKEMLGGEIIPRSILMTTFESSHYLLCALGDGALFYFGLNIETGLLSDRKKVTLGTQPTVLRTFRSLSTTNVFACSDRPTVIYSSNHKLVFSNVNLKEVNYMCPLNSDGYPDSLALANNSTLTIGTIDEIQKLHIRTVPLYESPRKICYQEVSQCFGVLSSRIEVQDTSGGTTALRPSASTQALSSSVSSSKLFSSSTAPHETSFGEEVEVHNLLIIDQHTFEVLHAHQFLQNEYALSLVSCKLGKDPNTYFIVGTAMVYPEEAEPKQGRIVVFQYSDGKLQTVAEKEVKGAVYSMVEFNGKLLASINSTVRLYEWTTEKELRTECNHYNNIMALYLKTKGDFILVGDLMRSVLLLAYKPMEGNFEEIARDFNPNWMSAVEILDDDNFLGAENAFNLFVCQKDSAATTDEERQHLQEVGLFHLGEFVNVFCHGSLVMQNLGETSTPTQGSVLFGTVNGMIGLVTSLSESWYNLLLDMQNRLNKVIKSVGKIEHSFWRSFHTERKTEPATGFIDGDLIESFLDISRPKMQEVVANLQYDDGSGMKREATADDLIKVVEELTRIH

- pKd: 6.40
Substance: GST-GSPT1-domain 2 and 3 (from UniProt P15170 437-633)

Reference: patent US10830762
